We go through 1 molecule from patent US20020147326A1, “Hexameric fusion proteins and uses therefor” (SmithKline Beecham Corporation, priority 1996, published 2002).

The target in experiment [1] is T1, CD28-Ig (Homo sapiens, UniProt P10747).
T1 construct: native leader and extracellular domain peptide of CD28 and CD80 were grafted onto a human IgG1 heavy chain Fc region; human IgG1 Fc (hinge/CH2/CH3); made in house; host or cells: CHO cells
Briefly: Isothermal titration calorimetry, binding to CD28-Ig in solution. The text has this:
The solution binding properties of the hexameric and standard Ig fusion proteins of CD80 and CD86 were compared using isothermal titration calorimetry, essentially as described previously for other proteins [K. Johanson et. al., J. Biol. Chem, 270: 9459-9471 (1995), and references therein].
This lower affinity for CD28 than for CTLA4 is in agreement with other reports [P. S. Linsley et. al., Immunity 1: 793-801 (1994)].

Experiment [2] concerns PCD28.1.S2.1 cells (human CD28, lacZ fused to the IL-2 promoter). Briefly: FDG assay for IL-2 promoter activity (lacZ reporter). The conditions noted are these: added directly to PC28.1.s2.1 cells in solution (FIG. 20A). The experiment is classed as cell-based, murine. As for the experimental part: A second assay for agonist activity measured induction of IL-2 promoter activity, rather than production of IL-2 protein. The PCD28.1.S2.1 cells described above also contain lacZ fused to the IL-2 promoter. Thus, the PCD28.1.S2.1 cell line provides a convenient system for measuring IL-2 promoter activity upon CD28-mediated T cell simulation. T cells were activated as described above for the CTLL-2 assay, spun down, resuspended in 50 μl of media+50 μl of PBS, lysed with 10 μl of 20% Triton X-100, and supplemented with 25 μl of 10 mM FDG (Molecular Probes), a fluorogenic substrate for b-galactosidase. Hydrolysis of FDG first yields fluorescein monogalactoside (FMG) and then the highly fluorescent product fluorescein. Cell lysates were incubated with FDG for 60 min., and the levels of fluorescence were measured by Fluoroscan (MTX Lab Systems, Inc).
(§1) IL-2 promoter activity and IL-2 levels were measured similarly to that described in parts A and B above, except that proliferation of the reader CTLL-2 cells was measured by ^3H-thymidine incorporation.

Experiment [3] concerns murine T-cell hybridoma cell lines expressing human CD28 (PCD28.1.s2.1, DCL27CD28wt.s2). Briefly: IL-2 production by CD28 T-cell hybridomas (CTLL-2 bioassay). Type of experiment: cell-based.
Description: The CD80- and CD86-Igαtp proteins were compared to the corresponding CD80 and CD86-Ig proteins to determine their ability to stimulate cells expressing human CD28 using two murine T-cell hybridoma cell lines expressing human CD28, PCD28.1.s2.1 and DCL27CD28wt.s2. The PCD28.1.s2.1 cell line was described in Example 1, part 3. The DCL27CD28wt.s2 cell line was created by transfection of the DC27 cell line [F. Pages et al., Nature, 369:327-329 (1994); F. Pages et al., J. Biol. Chem., 271(16):9403-9409 (1996)] with the same CD28 expression vector used for the PCD28.1.s2.1 cells [D. Couez et al., Molecular Immunology, 31:47-57 (1994)]. These cell lines were examined for their ability to produce IL-2 in response to activation with CD80- and CD86-Ig in comparison with the corresponding Igαtp fusion proteins. 96-well plates were coated with or without a CD3 antibody together with the CD80 and CD86 fusion proteins. This was accomplished by first incubating the plates with a previously determined suboptimal concentration of hamster […] CD3 antibody (MAb 145-2C11, Boerhinger-Mannheim Biochemicals) for two hours at room temperature (RT) or with just buffer alone, washing the plates with PBS, adding goat anti-human Ig heavy chain (GAH-IgHc, Sigma Chemical Co.) for an additional two hours at RT, washing again and coating with different concentrations of the CD80 or CD86 fusion protein for 16-18 hours at 4° C., washing again, and finally blocking for 30 min. with 0.2% BSA-PBS. […] T cells were incubated in the wells for 24 hours at 37° C., and supernatants were collected and evaluated for IL-2 levels in a standard CTLL-2 bioassay [S. M. Gillis et al., J. Immunol., 120:2027 (1978)]. […] OD570 readings were converted into ng/ml of IL-2 based on a standard curve generated by treating cells with known concentrations of IL-2.
as §1

Experiment [4] concerns the target T2, human CD28 on PCD28.1.s2.1 cells (Homo sapiens, UniProt P10747).
T2 construct: expressed in transfected cells; host or cells: PCD28.1.s2.1 (PE30.2 murine T-cell hybridoma transfected with pHbactCd28neo)
Briefly: Flow cytometry binding to cells expressing cell-surface CD28. Type of experiment: cell-based. The following applies: on ice. How it is done: Non-adherent CD28 expressing cells (PCD28.1.s2.1) were used for this assay format. PCD28.1.S2.1 cells were created by transfection of PE30.2 cells [D. Emilie et al., Eur. J. Immunol., 19:1619-1624 (1989)] with a vector for expression of human CD28 [D. Couez et al., Molecular Immunology, 31:47-57 (1994)]. All incubations were carried out on ice. Unlabelled CD80- and CD86-Igαtp or CD80 and CD86-Ig were incubated with the cells in binding buffer consisting of PBS w/o Ca+2/Mg+2, 0.2% bovine serum albumin and 0.1 % sodium azide. After washing twice in binding buffer, bound fusion proteins were detected with a 1:2000 dilution of a goat anti-human polyclonal antibody labeled with FITC (Flourescein isothiocyanate, Southern Biotech). Following two additional washes in binding buffer, the cells were resuspended in binding buffer and analyzed on a FACSort analyzer (Becton-Dickinson) using a 488 nm laser.

B1: CD86-Ig: binding protein/Fc construct for CD86 with human IgG1 Fc (protein)
chain: APLKIQAYFNETADLPCQFANSQNQSLSELVVFWQDQENLVLNEVYLGKEKFDSVHSKYMGRTSFDSDSWTLRLHNLQIKDKGLYQCIIHHKKPTGMIRIHQMNSELSVLANFSQPEIVPISNITENVYINLTCSSIHGYPEPKKMSVLLRTKNSTIEYDGIMQKSQDNVTELYDVSISLSVSFPDVTSNMTIFCILETDKTRLLSSPFSIELEDPQPPPDHEPKSADKTHTCPPCP
modifications: left off: a dimerising Fc or GST
On to B1, for which the “interaction with CD28-Ig in solution by calorimetry” value in experiment [1] is reported as “not detected”. For the same molecule, the IL-2 promoter activity result in experiment [2] is reported as “no stimulation”. The IL-2 production entry is given as “no stimulation” in experiment [3] (added directly to PC28.1.s2.1 cells in solution, CTLL-2 3H-thymidine incorporation (FIG. 20B)) and “no activity” in experiment [3] (soluble protein, absence of CD3 crosslinking). In addition, in experiment [3] (cross-linked with GAH antibody, no CD3 antibody), the IL-2 response entry is “did not give a response”. Besides, the “binding to CD28 positive cells” value in experiment [4] is listed as “no binding”.
